From patent US7713932B2, “Calcitonin drug-oligomer conjugates, and uses thereof” (Biocon Limited, priority 2001, dated 2010)
“And” between values parts separate entries of the source, which are not always exact repeats. Identical values can stand only once.

Key:
Type in all cases: in vitro ADME
[1] = Enzymatic stability: 0.5 U/mL chymotrypsin digest; conditions: chymotrypsin 0.5 U/mL, pH 7.4, Non-Formulated, replicate columns, read-out: % Remaining Following 0.5 U/mL Chymotrypsin Digest
Protocol: (§1) Compounds, supplied as lyophilized powders, are resuspended in 10 mM phosphate buffer pH 7.4 and then submitted for concentration determination by HPLC. The phosphate buffer is used to create a solution with a pH that is optimum for activity of each particular gut enzyme. Aliquots of the compound thus prepared are transferred to 1.7 mL microcentrifuge tubes and shaken in a 37° C. water bath for 15 minutes to allow compounds to equilibrate to temperature. After 15 minutes, 2 μL of the appropriate concentrated gut enzyme is added to each tube to achieve the final concentration desired. Chymotrypsin and trypsin are resuspended in 1 mM HCl. Also, as a control, compounds are treated with 2 μL of 1 mM HCl. Immediately following additions, 100 μL of sample is removed from the control tube and quenched with either 25 μL of chymotrypsin/trypsin quenching solution (1:11% TFA:Isopropanol). This sample will serve as T=0 min. A sampling procedure is repeated at various time intervals depending on the gut enzyme used. Chymotrypsin has 15, 30 and 60 minute samples. Trypsin has 30, 60, 120 and 180 minute samples. Once all points have been acquired, a final sample is removed from the control tube to make sure that observed degradation is not temperature or buffer related. The chymotrypsin and trypsin samples may be collected directly into HPLC vials. RP-HPLC (acetonitrile gradient) is used to determine AUC for each sample and % degradation is calculated based from the T=0 min control. The results are provided below in Tables 1 to 4.

Chymotrypsin = experiment: Enzymatic stability: 0.5 U/mL chymotrypsin digest; conditions: for % Remaining Following 0.5 U/mL Chymotrypsin Digest: replicate columns; for % Remaining, Control: Control tube (1 mM HCl, no enzyme)
Protocol: as §1

[2] = Enzymatic stability: 1 U/mL trypsin digest; conditions: trypsin 1 U/mL, pH 7.4, Non-Formulated, replicate columns, read-out: % Remaining following 1 U/mL Trypsin Digest
Protocol: as §1

Trypsin = experiment: Enzymatic stability: 1 U/mL trypsin digest; conditions: for % Remaining, Control: Control tube (1 mM HCl, no enzyme); for % Remaining following 1 U/mL Trypsin Digest: Non-Formulated, replicate columns
Protocol: as §1

Compound: COCCOCCOCCOCCOCCOCCOCCOCCCCCCCC(=O)NCCCC[C@H](NC(=O)CNC(=O)[C@H](CC(C)C)NC(=O)[C@@H](NC(=O)[C@@H]1CSSC[C@H](N)C(=O)N[C@@H](CO)C(=O)N[C@@H](CC(N)=O)C(=O)N[C@@H](CC(C)C)C(=O)N[C@@H](CO)C(=O)N[C@@H]([C@@H](C)O)C(=O)N1)C(C)C)C(=O)N[C@@H](CC(C)C)C(=O)N[C@@H](CO)C(=O)N[C@@H](CCC(N)=O)C(=O)N[C@@H](CCC(=O)O)C(=O)N[C@@H](CC(C)C)C(=O)N[C@@H](Cc1c[nH]cn1)C(=O)N[C@@H](CCCCNC(=O)CCCCCCCOCCOCCOCCOCCOCCOCCOCCOC)C(=O)N[C@@H](CC(C)C)C(=O)N[C@@H](CCC(N)=O)C(=O)N[C@H](C(=O)N[C@@H](Cc1ccc(O)cc1)C(=O)N1CCC[C@H]1C(=O)N[C@@H](CCCNC(=N)N)C(=O)N[C@H](C(=O)N[C@@H](CC(N)=O)C(=O)N[C@H](C(=O)NCC(=O)N[C@@H](CO)C(=O)NCC(=O)N[C@H](C(=O)N1CCC[C@H]1C(N)=O)[C@@H](C)O)[C@@H](C)O)[C@@H](C)O)[C@@H](C)O
- remaining at 0.25 h ([1]; 15 min): 63%
- remaining at 0.5 h ([1]; 30 min): 34%
- % Remaining Following 0.5 U/mL Chymotrypsin Digest (Chymotrypsin; Buffered Formulation, 15 min): 88% (2×) and 86%
- % Remaining Following 0.5 U/mL Chymotrypsin Digest (Chymotrypsin; Buffered Formulation, 30 min): 73% and 88% and 86%
- % Remaining Following 0.5 U/mL Chymotrypsin Digest (Chymotrypsin; Buffered Formulation, 60 min): 61% and 69% and 84%
- % Remaining, Control (Chymotrypsin; Buffered Formulation, 60 min): 116% and 104% and 101%
- % Remaining, Control (Chymotrypsin; Non-Formulated, 60 min): 104% and 88% and 97% and 103%
- remaining at 0.5 h ([2]; 30 min): 87%
- remaining at 1 h ([2]; 60 min): 78%
- remaining at 2 h ([2]; 120 min): 72%
- remaining at 3 h ([2]; 180 min): 81%
- % Remaining, Control (Trypsin; 60 min): 103% and 100%
- % Remaining, Control (Trypsin; 120 min): 106% and 105% and 99%
- % Remaining, Control (Trypsin; 180 min): 104% and 99%

Compound: CC(C)C[C@H](NC(=O)[C@H](CCCCN)NC(=O)CNC(=O)[C@H](CC(C)C)NC(=O)[C@@H](NC(=O)[C@@H]1CSSC[C@H](N)C(=O)N[C@@H](CO)C(=O)N[C@@H](CC(N)=O)C(=O)N[C@@H](CC(C)C)C(=O)N[C@@H](CO)C(=O)N[C@@H]([C@@H](C)O)C(=O)N1)C(C)C)C(=O)N[C@@H](CO)C(=O)N[C@@H](CCC(N)=O)C(=O)N[C@@H](CCC(=O)O)C(=O)N[C@@H](CC(C)C)C(=O)N[C@@H](Cc1c[nH]cn1)C(=O)N[C@@H](CCCCN)C(=O)N[C@@H](CC(C)C)C(=O)N[C@@H](CCC(N)=O)C(=O)N[C@H](C(=O)N[C@@H](Cc1ccc(O)cc1)C(=O)N1CCC[C@H]1C(=O)N[C@@H](CCCNC(=N)N)C(=O)N[C@H](C(=O)N[C@@H](CC(N)=O)C(=O)N[C@H](C(=O)NCC(=O)N[C@@H](CO)C(=O)NCC(=O)N[C@H](C(=O)N1CCC[C@H]1C(N)=O)[C@@H](C)O)[C@@H](C)O)[C@@H](C)O)[C@@H](C)O [Salmon Calcitonin]
- % Remaining Following 0.5 U/mL Chymotrypsin Digest (Chymotrypsin; Buffered Formulation, 15 min): 59% and 91% and 92%
- % Remaining Following 0.5 U/mL Chymotrypsin Digest (Chymotrypsin; Buffered Formulation, 30 min): 54% and 86% and 87%
- % Remaining Following 0.5 U/mL Chymotrypsin Digest (Chymotrypsin; Buffered Formulation, 60 min): 55% and 82% and 85%
- % Remaining, Control (Chymotrypsin; Buffered Formulation, 60 min): 102% and 98% and 103%
- % Remaining Following 0.5 U/mL Chymotrypsin Digest (Chymotrypsin; Non-Formulated, 15 min): 62% and 35%
- % Remaining Following 0.5 U/mL Chymotrypsin Digest (Chymotrypsin; Non-Formulated, 30 min): 30% and 26% and 40% and 13% and 42%
- % Remaining Following 0.5 U/mL Chymotrypsin Digest (Chymotrypsin; Non-Formulated, 60 min): 1.6% and 5% and 12% and 1%
- % Remaining following 1 U/mL Trypsin Digest (Trypsin; 30 min): 80% and 50%
- % Remaining following 1 U/mL Trypsin Digest (Trypsin; 60 min): 66% and 28% and 69% and 76%
- % Remaining following 1 U/mL Trypsin Digest (Trypsin; 120 min): 44% and 7% and 46% and 59%
- % Remaining following 1 U/mL Trypsin Digest (Trypsin; 180 min): 2% and 31% and 46%
